Consider three molecules from patent publication US20230212319A1, “NOVEL ANTIGEN BINDING DOMAINS AND SYNTHETIC ANTIGEN RECEPTORS INCORPORATING THE SAME” (University of Southern California, priority 2020, published 2023).

One assay has as its system RAJI cells. In words: JNG assay, co-culture with RAJI cells. Type of assay: cell-based. To be noted: JNG cells expressing construct, co-culture with Raji. The gist of the method: (§1)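 Jurkat NFAT-GFP (JNG) cells stably transduced with SARs by lentivirus, with drug selection where the construct carried a resistance gene, then co-cultured with target cells at E:T ~1:2 for ~4–18 h. % GFP-positive cells measured by FACS against parental JNG; +/- to 5+ correspond to ~5–50% GFP-positive.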

A further assay has as its system L363 cells. Nature of the assay: JNG assay, co-culture with L363 cells. Type of assay: cell-based. To be noted: co-culture with L363. The gist of the method:
as §1

B1: 22051 (protein)
chain: MALPVTALLLPLALLLHAARPQLQLQESGPGLVKPSETLSLTCTVSGDSISSGDYYWGWIRQPPGKGLEWIGHIYYSGVTYYNPSLKSRVTISVDTSRNQFSLKLSSVTAADTAVYYCTREDSSNWRSRGQGTLVTVSSLEDKTHTCPPCPAGRADCGFTSESYQQGVLSATILYEILLGKATLYAVLVSALVLMAMVKRKDSRGRAKRSGSGATNFSLLKQAGDVEENPGPTSMDWIWRILFLVGAATGAHSFEVQLLESGGGLIQPGGSLRLSCAASGFTFSSHAMTWVRQAPGKGLEWVSAISGSGDYTHYADSVKGRFTISRDNSKNTVYLQMNSLRAEDSAVYYCAKDEDGGSLLGHRGQGTLVTVSSTRDKTHTCPPCPAEVKTDSTDHVKPKETENTKQPSKSCHKPKAIVHTEKVNMMSLTVLGLRMLFAKTVAVNFLLTAKLFFL
On to B1, for which, in the assay with RAJI cells, the “NFAT-GFP ASSAY: Raji” value was “+/- (refer to approximately 5%, 10%, 20%, 30%, 40% and 50% GFP positive cells)”. In the assay with L363 cells, the “NFAT-GFP ASSAY: L363” value is “+/- (refer to approximately 5%, 10%, 20%, 30%, 40% and 50% GFP positive cells)”.

B2: 22052 (protein)
chain: MALPVTALLLPLALLLHAARPQLQLQESGPGLVKPSETLSLTCTVSGDSISSGDYYWGWIRQPPGKGLEWIGHIYYSGVTYYNPSLKSRVTISVDTSRNQFSLKLSSVTAADTAVYYCTREDSSNWRSRGQGTLVTVSSLEDKTHTCPPCPAEVKTDSTDHVKPKETENTKQPSKSCHKPKAIVHTEKVNMMSLTVLGLRMLFAKTVAVNFLLTAKLFFLRAKRSGSGVKQTLNFDLLKLAGDVESNPGPTSMDWIWRILFLVGAATGAHSFEVQLLESGGGLIQPGGSLRLSCAASGFTFSSHAMTWVRQAPGKGLEWVSAISGSGDYTHYADSVKGRFTISRDNSKNTVYLQMNSLRAEDSAVYYCAKDEDGGSLLGHRGQGTLVTVSSTRDKTHTCPPCPAIPEDTFFPSPESSCDVKLVEKSFETDTNLNFQNLSVIGFRILLLKVAGFNLLMTLRLWSSRAKRSGSGVKQTLNFDLLKLAGDVESNPGPSRGHMTEYKPTVRLATRDDVPRAVRTLAAAFADYPATRHTVDPDRHIERVTELQELFLTRVGLDIGKVWVADDGAAVAVWTTPESVEAGAVFAEIGPRMAELSGSRLAAQQQMEGLLAPHRPKEPAWFLATVGVSPDHQGKGLGSAVVLPGVEAAERAGVPAFLETSAPRNLPFYERLGFTVTADVEVPEGPRTWCMTRKPGA
Consider B2, for which the “NFAT-GFP ASSAY: Raji” value in the assay with RAJI cells was “+/- (refer to approximately 5%, 10%, 20%, 30%, 40% and 50% GFP positive cells)”. In addition, in the assay on L363 cells, the “NFAT-GFP ASSAY: L363” value is “+/- (refer to approximately 5%, 10%, 20%, 30%, 40% and 50% GFP positive cells)”.

B3: 22073 (protein)
chain: MALPVTALLLPLALLLHAARPQLQLQESGPGLVKPSETLSLTCTVSGDSISSGDYYWGWIRQPPGKGLEWIGHIYYSGVTYYNPSLKSRVTISVDTSRNQFSLKLSSVTAADTAVYYCTREDSSNWRSRGQGTLVTVSSLEGQPKANPTVTLFPPSSEELQANKATLVCLISDFYPGAVTVAWKADGSPVKAGVETTKPSKQSNNKYAASSYLSLTPEQWKSHRSYSCQVTHEGSTVEKTVAPTECSGRADCGFTSESYQQGVLSATILYEILLGKATLYAVLVSALVLMAMVKRKDSRGRAKRSGSGATNFSLLKQAGDVEENPGPTSMDWIWRILFLVGAATGAHSFEVQLLESGGGLIQPGGSLRLSCAASGFTFSSHAMTWVRQAPGKGLEWVSAISGSGDYTHYADSVKGRFTISRDNSKNTVYLQMNSLRAEDSAVYYCAKDEDGGSLLGHRGQGTLVTVSSTRIQNPDPAVYQLRDSKSSDKSVCLFTDFDSQTNVSQSKDSDVYITDKCVLDMRSMDFKSNSAVAWSNKSDFACANAFNNSIIPEDTFFPSPESSCDVKLVEKSFETDTNLNFQNLSVIGFRILLLKVAGFNLLMTLRLWSSRAKRSGSGVKQTLNFDLLKLAGDVESNPGPSRGHMTEYKPTVRLATRDDVPRAVRTLAAAFADYPATRHTVDPDRHIERVTELQELFLTRVGLDIGKVWVADDGAAVAVWTTPESVEAGAVFAEIGPRMAELSGSRLAAQQQMEGLLAPHRPKEPAWFLATVGVSPDHQGKGLGSAVVLPGVEAAERAGVPAFLETSAPRNLPFYERLGFTVTADVEVPEGPRTWCMTRKPGA
As for B3, the “NFAT-GFP ASSAY: Raji” value with RAJI cells was “+/- (refer to approximately 5%, 10%, 20%, 30%, 40% and 50% GFP positive cells)”. Moreover, the “NFAT-GFP ASSAY: L363” value in the assay with L363 cells was “+/- (refer to approximately 5%, 10%, 20%, 30%, 40% and 50% GFP positive cells)”.
